Experimental data reported in the supplement of paper PMC10567573.

B1: SOAT2 (parent)
chain: SLGKQKVFIIRKSLLDELMEVQHF

Variants of: B1
Assay: protein stability index of a GFP-peptide fusion (GPS, HEK-293T) (PSI 1-6); higher = more stable
Conditions: c terminus: a fixed tail appended
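Note: lentivirally expressed fusions sorted by FACS into six bins by GFP to DsRed ratio, PSI derived from sequencing read proportions per bin multiplied by bin number.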

| Variant | protein stability index |
| --- | --- |
| SLGKQKVFIIRKSLLDELMEVQHH [F24H] | 1.36 |
| SLGKQKVFIIRKSLLDELMEVQHL [F24L] | 2.18 |
| SLGKQKVFIIRKSLLDELMEVQHM [F24M] | 2.2 |
| SLGKQKVFIIRKSLLDELMEVQHK [F24K] | 2.4 |
| SLGKQKVFIIRKSLLDELMEVQHS [F24S] | 2.25 |
| SLGKQKVFIIRKSLLDELMEVQHW [F24W] | 2.78 |
| SLGKQKVFIIRKSLLDELMEVQHT [F24T] | 1.8 |
| SLGKQKVFIIRKSLLDELMEVQHC [F24C] | 2.09 |
| SLGKQKVFIIRKSLLDELMEFQHF [V21F] | 2.85 |
| SLGKQKVFIIRKSLLDELMEGQHF [V21G] | 1.77 |
| SLGKQKVFIIRKSLLDELMESQHF [V21S] | 2.63 |
| SLGKQKVFIIRKSLLDELMEKQHF [V21K] | 2.08 |
| SLGKQKVFIIRKSLLDELMEAQHF [V21A] | 3.1 |
| SLGKQKVFIIRKSLLDELMEDQHF [V21D] | 1.74 |
| SLGKQKVFIIRKSLLDELMETQHF [V21T] | 1.93 |
| SLGKQKVEIIRKSLLDELMEVQHF [F8E] | 2.58 |
| SLGKQKVQIIRKSLLDELMEVQHF [F8Q] | 1.97 |
| SLGKQKVHIIRKSLLDELMEVQHF [F8H] | 1.71 |
| SLGKQKVWIIRKSLLDELMEVQHF [F8W] | 2.79 |
| SLGKQKVLIIRKSLLDELMEVQHF [F8L] | 2.02 |
| SLGKQKVSIIRKSLLDELMEVQHF [F8S] | 2.03 |
| SLGKQKVTIIRKSLLDELMEVQHF [F8T] | 1.32 |
| SLGKQKVFIIGKSLLDELMEVQHF [R11G] | 3.02 |
| SLGKQKVFIIWKSLLDELMEVQHF [R11W] | 2.53 |

| Variant | protein stability index |
| --- | --- |
| SLGKQKVFIIPKSLLDELMEVQHF [R11P] | 1.78 |
| SLGKQKVFIIEKSLLDELMEVQHF [R11E] | 2.99 |
| SLGKQKVFIIAKSLLDELMEVQHF [R11A] | 2.83 |
| SLGKQKVFIIFKSLLDELMEVQHF [R11F] | 1.78 |
| SLGKQKVFIIRISLLDELMEVQHF [K12I] | 2.77 |
| SLGKQKVFIIRVSLLDELMEVQHF [K12V] | 3.02 |
| SLGKQKVFIIRSSLLDELMEVQHF [K12S] | 1.23 |
| SLGIQKVFIIRKSLLDELMEVQHF [K4I] | 2.17 |
| SLGDQKVFIIRKSLLDELMEVQHF [K4D] | 1.91 |
| SLGMQKVFIIRKSLLDELMEVQHF [K4M] | 2.15 |
| SLGEQKVFIIRKSLLDELMEVQHF [K4E] | 1.52 |
| SLGCQKVFIIRKSLLDELMEVQHF [K4C] | 2.88 |
| SLGFQKVFIIRKSLLDELMEVQHF [K4F] | 2.22 |
| SLGYQKVFIIRKSLLDELMEVQHF [K4Y] | 2.8 |
| SLGRQKVFIIRKSLLDELMEVQHF [K4R] | 2.29 |
| SLGHQKVFIIRKSLLDELMEVQHF [K4H] | 2.31 |
| SLGKQKVFIIRKILLDELMEVQHF [S13I] | 3.3 |
| SLGKQKVFIIRKGLLDELMEVQHF [S13G] | 1.33 |
| SLGKQKVFIIRKLLLDELMEVQHF [S13L] | 2.24 |
| SLGKQKVFIIRKQLLDELMEVQHF [S13Q] | 1.69 |
| SLGKQKVFIIRKWLLDELMEVQHF [S13W] | 1.73 |
| SLGKQKVFIIRKTLLDELMEVQHF [S13T] | 2.4 |
| SLGKQKVFIIRKKLLDELMEVQHF [S13K] | 1.67 |
| SLGKQKVFIIRKFLLDELMEVQHF [S13F] | 3.49 |

| Variant | protein stability index |
| --- | --- |
| SLGKQKVFIIRKHLLDELMEVQHF [S13H] | 2.48 |
| SLGKQKVFIIRKSLLYELMEVQHF [D16Y] | 3.13 |
| SLGKQKVFIIRKSLLTELMEVQHF [D16T] | 2.14 |
| SLGKQKVFIIRKSLLSELMEVQHF [D16S] | 2.09 |
| SLGKQKVFIIRKSLLNELMEVQHF [D16N] | 3.3 |
| SLGKQKVFIIRKSLLPELMEVQHF [D16P] | 2.02 |
| SLGKQKVFIIRKSLLLELMEVQHF [D16L] | 3.27 |
| SLGKQKVFIIRKSLLWELMEVQHF [D16W] | 3.25 |
| SLGKQKVFIIRKSLLIELMEVQHF [D16I] | 2.98 |
| SLGKQKVFIIRKSLLDELMEVDHF [Q22D] | 1.91 |
| SLGKQKVFIIRKSLLDELMEVCHF [Q22C] | 2.01 |
| SLGKQKVFIIRKSLLDELMEVEHF [Q22E] | 2.74 |
| SLGKQKVFIIRKSLLDELMEVFHF [Q22F] | 2.2 |
| SLGKQKVFIIRKSLLDELMEVRHF [Q22R] | 3.46 |
| SLGKQKVFIIRKSLLDELMEVGHF [Q22G] | 3.24 |
| SLGKQKVFIIRKSLLDELMEVVHF [Q22V] | 1.49 |
| SLGKQKVFIIRKSLLDELMEVPHF [Q22P] | 1.79 |
| SLGKQKVFIIRKSLLDELMEVTHF [Q22T] | 3.05 |
| SLGKQKVFIIRKSLLDELMEVSHF [Q22S] | 1.68 |
| YLGKQKVFIIRKSLLDELMEVQHF [S1Y] | 1.34 |
| LLGKQKVFIIRKSLLDELMEVQHF [S1L] | 3.27 |
| HLGKQKVFIIRKSLLDELMEVQHF [S1H] | 2 |
| FLGKQKVFIIRKSLLDELMEVQHF [S1F] | 1.92 |
| ALGKQKVFIIRKSLLDELMEVQHF [S1A] | 2.41 |

| Variant | protein stability index |
| --- | --- |
| ELGKQKVFIIRKSLLDELMEVQHF [S1E] | 2.99 |
| SLGKQKVFIIRKSLLDILMEVQHF [E17I] | 2.86 |
| SLGKQKVFIIRKSLLDCLMEVQHF [E17C] | 3.21 |
| SLGKQKVFIIRKSLLDHLMEVQHF [E17H] | 4.16 |
| SLGKQKVFIIRKSLLDWLMEVQHF [E17W] | 3.08 |
| SLGKQKVFIIRKSLLDVLMEVQHF [E17V] | 3.36 |
| SLGKQKVFIIRKSLLDTLMEVQHF [E17T] | 3.87 |
| SLGKQKVFIIRKSLLDQLMEVQHF [E17Q] | 3.16 |
| SLGKQKVFIIRKSLLDRLMEVQHF [E17R] | 2.41 |
| SLGKQKVFIIRKSLLDMLMEVQHF [E17M] | 2.7 |
| SLGKQKVFRIRKSLLDELMEVQHF [I9R] | 1.8 |
| SLGKQKVFDIRKSLLDELMEVQHF [I9D] | 2.18 |
| SLGKQKVFNIRKSLLDELMEVQHF [I9N] | 2.02 |
| SLGKQKVFVIRKSLLDELMEVQHF [I9V] | 2.84 |
| SLGKQKVFYIRKSLLDELMEVQHF [I9Y] | 2.85 |
| SLGKQKVFKIRKSLLDELMEVQHF [I9K] | 1.58 |
| SLGKQKVFHIRKSLLDELMEVQHF [I9H] | 2.22 |
| SLGKQKVFAIRKSLLDELMEVQHF [I9A] | 1.99 |
| SLWKQKVFIIRKSLLDELMEVQHF [G3W] | 2.5 |
| SLDKQKVFIIRKSLLDELMEVQHF [G3D] | 2.12 |
| SLKKQKVFIIRKSLLDELMEVQHF [G3K] | 1.74 |
| SLSKQKVFIIRKSLLDELMEVQHF [G3S] | 2.73 |
